Test results published in US20240158493A1 (MYTHIC THERAPEUTICS, published 2024).

Target: T1, LRRC15 on U-87 MG (LRRC15+) cells (human, UniProt Q8TF66 22-581)
T1 construct: Endogenous LRRC15 of U-87 MG cells (ATCC HTB-14); also called cell surface LRRC15
T1 sequence: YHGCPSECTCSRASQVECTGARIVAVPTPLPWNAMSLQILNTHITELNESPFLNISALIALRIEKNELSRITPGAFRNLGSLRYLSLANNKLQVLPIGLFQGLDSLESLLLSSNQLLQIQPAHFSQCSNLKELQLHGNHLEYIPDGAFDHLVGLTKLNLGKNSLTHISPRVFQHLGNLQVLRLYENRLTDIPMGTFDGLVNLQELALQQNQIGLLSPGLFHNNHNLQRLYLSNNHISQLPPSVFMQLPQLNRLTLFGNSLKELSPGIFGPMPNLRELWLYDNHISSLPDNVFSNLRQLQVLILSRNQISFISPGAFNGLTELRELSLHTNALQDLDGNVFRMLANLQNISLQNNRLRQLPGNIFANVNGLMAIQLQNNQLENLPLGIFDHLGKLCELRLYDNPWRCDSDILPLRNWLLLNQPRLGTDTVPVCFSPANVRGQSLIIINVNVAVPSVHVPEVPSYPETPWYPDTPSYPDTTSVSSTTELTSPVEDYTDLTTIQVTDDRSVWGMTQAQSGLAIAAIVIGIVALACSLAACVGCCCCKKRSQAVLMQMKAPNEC
Assay: flow cytometry on U-87 MG (LRRC15+) cells, 60 nM to 1 pM
Experimental: FIGS. 40a-40b: Characterization of binding affinity for anti-LRRC15 mAbs. Anti-LRRC15 mAbs were assayed for their binding to U-87 MG (LRRC15+) cells.
Binding affinity of selected LRRC15 pH engineered antibody variants from Example 9 were measured on U-87 MG (LRRC15+) cells. 100,000 U-87 MG cells (ATCC HTB-14) were seeded per well in a 96 well deep well plate. Samrotamab and a pH engineered antibody variant were serially diluted at a 1:3 dilution in ice cold FC buffer (phosphate buffered saline (PBS), pH 7.4+2 mM ethylenediaminetetraacetic acid (EDTA)+2% (v/v) HI FBS). The plates were spun at 2,000 RPM for 2 minutes, the supernatant was removed, and 100 μL of diluted antibody was added to each well with final concentration ranging from 60 nM to 1 pM and incubated for 2 hours at 4° C. Post incubation, the cells were spun at 2000 rpm for 2 min and supernatant was discarded. Cells were washed twice with 500 μL of ice-cold FC buffer and resuspended with 100 μL of FC buffer. […] Post incubation, cells were washed with FC buffer and resuspended in 100 μL of FC buffer to read on a BD Accuri C6 flow cytometer. Binding affinity was measured as a dissociation constant KD by GraphPad Prism assuming Michaelis-Menten binding kinetics.

Binder	IC50 [nM]
samrotamab (antibody, V domains shown, IgG; the entries called heavy and light chain hold the variable domains only; also called MYT0963) VH: EVQLVQSGAEVKKPGASVKVSCKASGYKFSSYWIEWVKQAPGQGLEWIGEILPGSDTTNYNEKFKDRATFTSDTSINTAYMELSRLRSDDTAVYYCARDRGNYRAWFGYWGQGTLVTVSS VL: DIQMTQSPSSLSASVGDRVTITCRASQDISNYLNWYQQKPGGAVKFLIYYTSRLHSGVPSRFSGSGSGTDYTLTISSLQPEDFATYFCQQGEALPWTFGGGTKVEIK	0.228
MYT0971 (antibody, V domains shown, IgG) VH: EVQLVQSGAEVKKPGASVKVSCKASGYKFSSYHIEWVKQAPGQGLEWIGEILPGSDTTNYNEKFKDRATFTSDTSINTAYMELSRLRSDDTAVYYCARDRGNYRAWFGYWGQGTLVTVSS VL: DIQMTQSPSSLSASVGDRVTITCRASQDISNYLNWYQQKPGGAVKFLIYYTSRLHSGVPSRFSGSGSGTDYTLTISSLQPEDFATYFCQQGEALPWTFGGGTKVEIK	0.484
